Assay [1] deals with T1, CabRC core (PscA homodimer) in the CabRC complex (Chloracidobacterium thermophilum, UniProt G2LDR8).
T1 construct: gene Cabther_A2188; native complex from C. thermophilum membranes, Triton X-100, untagged; PscA homodimer with 11 TMHs each, insertion N440-H644; smaller form CabRCS without and larger form CabRCL with PscB and PscZ; with c-type cytochrome PscX; c-type cytochrome PscY; Reaction center subunit PscU; Reaction center subunit PscV; Reaction center subunit PscW
Briefly: cryo-EM structure ([…] Å CabRCS; […] Å CabRCL); HPLC of pigments. As to conditions: one transmembrane molecule in each PscA. Type of assay: binding.

The target of assay [2] is PscA (Chloracidobacterium thermophilum). Briefly: cryo-EM structure; CabRCS (smaller form, ten subunits), native complex purified from C. thermophilum membranes in Triton X-100; 2.22 Å; 20 mM Tris-HCl pH 7.6, 10 mM ascorbic acid, 0.03% Triton X-100.
A further assay has as its target T2, PscB (Chloracidobacterium thermophilum, UniProt G2LDR7 1-179).
T2 construct: Only in the larger form CabRCL; also called PscB/CabRC
T2 sequence (looked up): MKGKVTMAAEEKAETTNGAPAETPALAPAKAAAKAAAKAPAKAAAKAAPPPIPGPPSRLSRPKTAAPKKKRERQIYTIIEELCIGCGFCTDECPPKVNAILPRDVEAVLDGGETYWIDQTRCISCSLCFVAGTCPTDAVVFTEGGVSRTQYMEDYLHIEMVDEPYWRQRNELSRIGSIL
In words: cryo-EM structure; CabRCL (larger form with PscB and PscZ), native complex purified from C. thermophilum membranes in Triton X-100; 2.61 Å global, cytoplasmic region ~3.5 to ~5.0 Å; 20 mM Tris-HCl pH 7.6, 10 mM ascorbic acid, 0.03% Triton X-100. As to conditions: both partners purified.

As for `CC(C)=CCC/C(C)=C/C=C/C(C)=C/C=C/C(C)=C/C=C/C=C(C)/C=C/C=C(C)/C=C/C=C(\C)CCC=C(C)C` [lycopene], in assay [1], the “cryo-EM structure (2.22 Å CabRCS; 2.61 Å CabRCL); HPLC of pigments” value is listed as “we identified one transmembrane lycopene molecule in each PscA”.

For the molecule PscA (natural protein), the stoichiometry N in assay [2] came out at 2.

B1: PscZ (natural protein, Chloracidobacterium thermophilum, UniProt G2LHG2 1-60, looked up)
chain: MARTPEEIVKRYKEANIWLRHWKQQIGLAKDEEQREMFTQYYEERVQEIAALEEPYRAAL
notes: Only in the larger form CabRCL
Regarding B1, in the assay with PscB, the binding result is recorded as “binds”.

These data come from paper PMC9751088, “Structure of the Acidobacteria homodimeric reaction center bound with cytochrome c” (Nature Communications, 2022).
